Results: the supplement of paper PMC7125110
± gives the standard error. For some assays here: Variants at the floor of the assay were thinned out.

B1: glmS ribozyme (parent)
chain: AUAAAAGCGCCAGAACUACAGAAAUGUAGUUGACGAGGAGGAGGUUUAUCGAAUUUUCGGCGGAUGCCUCCAAA

Assays:
Conditions in all cases: with glucosamine-6-phosphate
glucosamine-6-phosphate [1] = variants of: B1; assay: kcat; higher = faster cleavage; RNA array
Outline: (§1)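 Glucosamine-6-phosphate in HEPES/KCl/Mg(OAc)2 buffer, at 40 μM to 10 mM, was flowed over barcoded ribozyme variants transcribed in situ by E. coli RNA polymerase on sequenced MiSeq chips. Tracking was through a hybridised Cy3 probe at 37 °C. kobs, kcat and KM came from exponential decay fits and weighted Michaelis–Menten fits of normalised per-tile medians.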

glucosamine-6-phosphate [2] = variants of: B1; assay: self-cleavage kobs at 2500 uM GlcN6P; higher = faster cleavage; RNA array
Outline: as §1

glucosamine-6-phosphate [3] = variants of: B1; assay: self-cleavage kobs at 10000 uM GlcN6P; higher = faster cleavage; RNA array
Outline: as §1

glucosamine-6-phosphate [4] = variants of: B1; assay: self-cleavage kobs at 40 uM GlcN6P; higher = faster cleavage; RNA array
Outline: as §1

glucosamine-6-phosphate [5] = variants of: B1; assay: self-cleavage kobs at 160 uM GlcN6P; higher = faster cleavage; RNA array
Outline: as §1

glucosamine-6-phosphate [6] = variants of: B1; assay: self-cleavage kobs at 640 uM GlcN6P; higher = faster cleavage; RNA array
Outline: as §1

glucosamine-6-phosphate [7] = variants of: B1; assay: KM; higher = weaker cofactor use; RNA array
Outline: as §1

| Variant | kcat (glucosamine-6-phosphate [1]) | self-cleavage kobs at 2500 uM GlcN6P (glucosamine-6-phosphate [2]) | self-cleavage kobs at 10000 uM GlcN6P (glucosamine-6-phosphate [3]) | self-cleavage kobs at 40 uM GlcN6P (glucosamine-6-phosphate [4]) | self-cleavage kobs at 160 uM GlcN6P (glucosamine-6-phosphate [5]) | self-cleavage kobs at 640 uM GlcN6P (glucosamine-6-phosphate [6]) | KM (glucosamine-6-phosphate [7]) |
| --- | --- | --- | --- | --- | --- | --- | --- |
| A39G G59A | 0.000106 ± 2.1e-05 s⁻¹ | 7.4e-05 ± 1.8e-05 s⁻¹ | 8.4e-05 ± 1.1e-05 s⁻¹ | – | – | – | – |
| G38A C67A | < 1e-05 s⁻¹ | – | – | < 1e-05 s⁻¹ | – | – | – |
| G38C C67A | < 1e-05 s⁻¹ | – | – | < 1e-05 s⁻¹ | < 1e-05 s⁻¹ | – | – |
| A39U U69G | 6.87e-05 ± 1e-05 s⁻¹ | 4.76e-05 ± 1.3e-05 s⁻¹ | 7.29e-05 ± 1.5e-05 s⁻¹ | – | – | 4.85e-05 ± 1.5e-05 s⁻¹ | – |
| G37A C71A | 0.000462 ± 4.6e-05 s⁻¹ | 0.000331 ± 4.6e-05 s⁻¹ | 0.000391 ± 3.8e-05 s⁻¹ | – | 5.16e-05 ± 2e-05 s⁻¹ | 0.000114 ± 2.7e-05 s⁻¹ | 1520 ± 410 µM |
| G32A A42U C70A | < 1e-05 s⁻¹ | – | – | < 1e-05 s⁻¹ | < 1e-05 s⁻¹ | < 1e-05 s⁻¹ | – |
| A33G A36C | 1.58e-05 ± 7.1e-06 s⁻¹ | – | < 1e-05 s⁻¹ | < 1e-05 s⁻¹ | < 1e-05 s⁻¹ | < 1e-05 s⁻¹ | – |
| G37A U45G | 0.00169 ± 0.00018 s⁻¹ | 0.000738 ± 0.00016 s⁻¹ | 0.00132 ± 0.00019 s⁻¹ | – | 8.96e-05 ± 3.2e-05 s⁻¹ | 0.000349 ± 6.9e-05 s⁻¹ | 2870 ± 530 µM |
| A33U G37U | < 1e-05 s⁻¹ | – | – | – | < 1e-05 s⁻¹ | – | – |
| G32U G41A | 0.000221 ± 1.2e-05 s⁻¹ | 7.3e-05 ± 1.5e-05 s⁻¹ | 0.00015 ± 1.4e-05 s⁻¹ | – | – | 2.98e-05 ± 1.1e-05 s⁻¹ | 4720 ± 590 µM |
| A39G G44C | 0.000507 ± 6.5e-05 s⁻¹ | 0.000327 ± 6.4e-05 s⁻¹ | 0.000394 ± 4.8e-05 s⁻¹ | – | – | 0.000101 ± 1.9e-05 s⁻¹ | 2450 ± 660 µM |
| A39G G44U | 0.00229 ± 0.0007 s⁻¹ | 0.000853 ± 0.00022 s⁻¹ | 0.00136 ± 0.00023 s⁻¹ | – | – | 0.000198 ± 5e-05 s⁻¹ | 6340 ± 3000 µM |
| A33C C50A | < 1e-05 s⁻¹ | – | – | – | – | – | – |
| A39G U54A | 0.0133 ± 0.0029 s⁻¹ | – | 0.018 ± 0.0076 s⁻¹ | 0.00173 ± 0.00037 s⁻¹ | – | 0.00823 ± 0.0019 s⁻¹ | 282 ± 100 µM |
| A39G C70U C71U | 0.000401 ± 9.5e-05 s⁻¹ | 0.000283 ± 8.9e-05 s⁻¹ | 0.000785 ± 0.00024 s⁻¹ | 0.000107 ± 2.7e-05 s⁻¹ | 0.000403 ± 0.00018 s⁻¹ | 0.000383 ± 8.4e-05 s⁻¹ | – |
| A39U U65G | 0.00369 ± 0.0011 s⁻¹ | 0.00164 ± 0.00021 s⁻¹ | 0.0031 ± 0.00036 s⁻¹ | 6.84e-05 ± 8.5e-06 s⁻¹ | 0.0002 ± 2.9e-05 s⁻¹ | 0.000445 ± 9.7e-05 s⁻¹ | 2880 ± 1200 µM |

| Variant | kcat (glucosamine-6-phosphate [1]) | self-cleavage kobs at 2500 uM GlcN6P (glucosamine-6-phosphate [2]) | self-cleavage kobs at 10000 uM GlcN6P (glucosamine-6-phosphate [3]) | self-cleavage kobs at 40 uM GlcN6P (glucosamine-6-phosphate [4]) | self-cleavage kobs at 160 uM GlcN6P (glucosamine-6-phosphate [5]) | self-cleavage kobs at 640 uM GlcN6P (glucosamine-6-phosphate [6]) | KM (glucosamine-6-phosphate [7]) |
| --- | --- | --- | --- | --- | --- | --- | --- |
| G40A G66U | 0.000238 ± 1.9e-05 s⁻¹ | 0.000124 ± 2e-05 s⁻¹ | 0.000203 ± 3.5e-05 s⁻¹ | – | – | 6.02e-05 ± 1.2e-05 s⁻¹ | 2050 ± 330 µM |
| A39U U45G | 0.00909 ± 0.0007 s⁻¹ | 0.00481 ± 0.00079 s⁻¹ | 0.00711 ± 0.00075 s⁻¹ | 0.000146 ± 2e-05 s⁻¹ | 0.000471 ± 8.8e-05 s⁻¹ | 0.00165 ± 0.00028 s⁻¹ | 2650 ± 300 µM |
| G32U C68U | 0.000114 ± 5.5e-06 s⁻¹ | 7.28e-05 ± 6.1e-06 s⁻¹ | 9.76e-05 ± 6.8e-06 s⁻¹ | < 1e-05 s⁻¹ | – | 2.88e-05 ± 8.9e-06 s⁻¹ | 1540 ± 250 µM |
| G37U U69C | 1.14e-05 ± 5.4e-06 s⁻¹ | – | < 1e-05 s⁻¹ | – | < 1e-05 s⁻¹ | – | – |
| G32U G63A | < 1e-05 s⁻¹ | < 1e-05 s⁻¹ | < 1e-05 s⁻¹ | – | – | < 1e-05 s⁻¹ | – |
| A39G G43U | 0.000168 ± 1e-05 s⁻¹ | 0.000119 ± 3.3e-05 s⁻¹ | 0.000149 ± 2.2e-05 s⁻¹ | – | – | 5.98e-05 ± 1.8e-05 s⁻¹ | 1170 ± 240 µM |
| G40A G43C | < 1e-05 s⁻¹ | – | – | – | – | < 1e-05 s⁻¹ | – |
| A39C U46A | 0.000341 ± 6.3e-05 s⁻¹ | 0.000209 ± 3.4e-05 s⁻¹ | 0.000249 ± 3.6e-05 s⁻¹ | – | – | 5.57e-05 ± 1e-05 s⁻¹ | 2880 ± 980 µM |
| A39C U46G | 0.000897 ± 0.00012 s⁻¹ | 0.00042 ± 6.2e-05 s⁻¹ | 0.000829 ± 0.0001 s⁻¹ | – | 6.87e-05 ± 9.7e-06 s⁻¹ | 0.000224 ± 2e-05 s⁻¹ | 2000 ± 420 µM |
| C34A U56G | < 1e-05 s⁻¹ | < 1e-05 s⁻¹ | – | < 1e-05 s⁻¹ | < 1e-05 s⁻¹ | < 1e-05 s⁻¹ | 31 ± 12 µM |
| U31G U65C | 0.000173 ± 5.1e-05 s⁻¹ | 6.33e-05 ± 1.4e-05 s⁻¹ | 0.000136 ± 2e-05 s⁻¹ | – | – | 4.57e-05 ± 1.5e-05 s⁻¹ | – |
| A39U C71A | 0.00326 ± 0.00043 s⁻¹ | 0.00175 ± 0.00039 s⁻¹ | 0.0028 ± 0.00031 s⁻¹ | 6.47e-05 ± 9.1e-06 s⁻¹ | 0.000353 ± 6.3e-05 s⁻¹ | 0.000728 ± 0.00015 s⁻¹ | 1880 ± 370 µM |
| A39U C71U | 0.0168 ± 0.0026 s⁻¹ | 0.0105 ± 0.0014 s⁻¹ | 0.0183 ± 0.0026 s⁻¹ | 0.000702 ± 7.4e-05 s⁻¹ | 0.00196 ± 0.00029 s⁻¹ | 0.00657 ± 0.00085 s⁻¹ | 1030 ± 230 µM |
| A36G A64G | 2.02e-05 ± 1.1e-06 s⁻¹ | – | – | < 1e-05 s⁻¹ | < 1e-05 s⁻¹ | – | – |
| A39C U69C | 0.000195 ± 3.5e-05 s⁻¹ | 0.000211 ± 3.5e-05 s⁻¹ | 0.000166 ± 1.9e-05 s⁻¹ | – | – | 6.94e-05 ± 1.8e-05 s⁻¹ | – |
